We go through one substance from US20080274976A1.

Values joined by “and” are separate entries in the source; they are usually repeats but may differ in a detail not shown here. Equal entries are not always repeated.

For assay [1], the target named is TSha1 K+ channel from trout (trout). Description: open channel binding, ratio of Table III values.
The target is the same in assay [2]. Put plainly: closed channel binding, ratio of Table III values.
The next assay concerns the target Shaker-Δ6-46 K+ channel (UniProt P08510). Put plainly: comparison of open- and closed-state KD, voltage clamp in Xenopus oocytes.

Sequence of TSha1 K+ channel from trout (trout) (Q9I830 whole entry): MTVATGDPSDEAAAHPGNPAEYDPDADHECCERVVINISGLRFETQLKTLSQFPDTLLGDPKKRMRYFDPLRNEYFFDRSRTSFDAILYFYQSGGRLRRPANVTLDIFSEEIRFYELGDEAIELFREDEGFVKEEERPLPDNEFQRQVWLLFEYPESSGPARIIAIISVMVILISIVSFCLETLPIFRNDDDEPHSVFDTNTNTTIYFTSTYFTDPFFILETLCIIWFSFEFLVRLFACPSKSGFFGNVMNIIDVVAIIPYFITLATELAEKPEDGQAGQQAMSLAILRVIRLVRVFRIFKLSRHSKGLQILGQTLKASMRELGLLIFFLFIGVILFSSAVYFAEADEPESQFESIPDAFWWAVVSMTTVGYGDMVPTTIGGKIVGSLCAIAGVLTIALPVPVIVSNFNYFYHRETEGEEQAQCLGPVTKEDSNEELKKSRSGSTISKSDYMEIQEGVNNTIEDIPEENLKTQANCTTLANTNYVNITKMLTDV
Sequence of Shaker-Δ6-46 K+ channel (P08510 other isoform, or with tags, fused parts or gaps mutant): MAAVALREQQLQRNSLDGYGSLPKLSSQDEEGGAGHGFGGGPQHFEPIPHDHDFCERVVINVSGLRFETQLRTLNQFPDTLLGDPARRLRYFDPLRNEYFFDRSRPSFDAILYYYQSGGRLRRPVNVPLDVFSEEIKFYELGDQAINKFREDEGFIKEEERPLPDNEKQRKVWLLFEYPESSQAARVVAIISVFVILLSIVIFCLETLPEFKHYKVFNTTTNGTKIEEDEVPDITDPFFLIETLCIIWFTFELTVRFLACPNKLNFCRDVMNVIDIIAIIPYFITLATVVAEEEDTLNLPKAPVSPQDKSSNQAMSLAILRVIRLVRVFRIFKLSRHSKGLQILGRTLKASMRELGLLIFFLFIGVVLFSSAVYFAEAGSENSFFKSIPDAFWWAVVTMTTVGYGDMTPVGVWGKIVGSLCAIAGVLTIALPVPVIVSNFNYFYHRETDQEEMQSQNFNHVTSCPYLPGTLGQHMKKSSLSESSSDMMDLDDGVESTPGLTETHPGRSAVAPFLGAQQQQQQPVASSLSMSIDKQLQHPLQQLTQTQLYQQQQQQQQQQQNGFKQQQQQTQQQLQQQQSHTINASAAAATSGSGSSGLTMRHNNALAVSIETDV

Consider κM-conotoxin RIIIK (peptide), for which, in assay [1], the fold higher k(O)on than in the Shaker-Δ6-46 channel came to 3 fold and the fold smaller k(O)off than in the Shaker-Δ6-46 channel amounted to 20 fold. The fold higher k(C)on than in the Shaker-Δ6-46 channel in assay [2] turned out to be 4 fold. Besides, the fold lower affinity for the open state (0 mV) than for the closed state in the assay with Shaker-Δ6-46 K+ channel is 3 fold and 4 fold.
